B1: Tyrosine-protein phosphatase non-receptor type 22 (Homo sapiens), Q9Y2R2 (parent)
chain: MDQREILQKFLDEAQSKKITKEEFANEFLKLKRQSTKYKADKTYPTTVAEKPKNIKKNRYKDILPYDYSRVELSLITSDEDSSYINANFIKGVYGPKAYIATQGPLSTTLLDFWRMIWEYSVLIIVMACMEYEMGKKKCERYWAEPGEMQLEFGPFSVSCEAEKRKSDYIIRTLKVKFNSETRTIYQFHYKNWPDHDVPSSIDPILELIWDVRCYQEDDSVPICIHCSAGCGRTGVICAIDYTWMLLKDGIIPENFSVFSLIREMRTQRPSLVQTQEQYELVYNAVLELFKRQMDVIRDKHSGTESQAKHCIPEKNHTLQADSYSPNLPKSTTKAAKMMNQQRTKMEIKESSSFDFRTSEISAKEELVLHPAKSSTSFDFLELNYSFDKNADTTMKWQTKAFPIVGEPLQKHQSLDLGSLLFEGCSNSKPVNAAGRYFNSKVPITRTKSTPFELIQQRETKEVDSKENFSYLESQPHDSCFVEMQAQKVMHVSSAELNYSLPYDSKHQIRNASNVKHHDSSALGVYSYIPLVENPYFSSWPPSGTSSKMSLDLPEKQDGTVFPSSLLPTSSTSLFSYYNSHDSLSLNSPTNISSLLNQESAVLATAPRIDDEIPPPLPVRTPESFIVVEEAGEFSPNVPKSLSSAVKVKIGTSLEWGGTSEPKKFDDSVILRPSKSVKLRSPKSELHQDRSSPPPPLPERTLESFFLADEDCMQAQSIETYSTSYPDTMENSTSSKQTLKTPGKSFTRSKSLKILRNMKKSICNSCPPNKPAESVQSNNSSSFLNFGFANRFSKPKGPRNPPPTWNI
partner: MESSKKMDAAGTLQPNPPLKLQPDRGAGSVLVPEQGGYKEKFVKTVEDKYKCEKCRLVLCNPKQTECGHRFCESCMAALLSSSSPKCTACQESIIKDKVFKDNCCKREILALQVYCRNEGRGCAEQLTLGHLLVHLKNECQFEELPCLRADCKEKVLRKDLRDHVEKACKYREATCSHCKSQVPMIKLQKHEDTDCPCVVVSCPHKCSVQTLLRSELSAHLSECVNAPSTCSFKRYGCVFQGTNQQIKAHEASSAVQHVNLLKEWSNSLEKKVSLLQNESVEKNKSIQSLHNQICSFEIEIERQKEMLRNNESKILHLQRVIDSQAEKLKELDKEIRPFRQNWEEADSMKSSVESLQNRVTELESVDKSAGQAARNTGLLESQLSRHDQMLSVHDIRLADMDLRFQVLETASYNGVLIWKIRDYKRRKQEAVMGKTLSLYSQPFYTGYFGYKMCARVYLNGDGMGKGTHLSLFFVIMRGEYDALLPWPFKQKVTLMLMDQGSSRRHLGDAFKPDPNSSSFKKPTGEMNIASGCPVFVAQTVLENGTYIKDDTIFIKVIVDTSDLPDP

Variants of: B1
Conditions: with traf3_mouse Traf3, Q60803

Variant	effect of a mutation on the interaction
R620W	decreasing interaction strength
